Data from patent US10227575B2, “Multi-domain enzymes having cutinase activity, compositions comprising same and uses thereof” (OZYMES, priority 2015, dated 2019).
Where two headings read alike, the source gives them in different places.

Assays:
[1] = pH optimum in Universal Buffer; assay type: biochemical; details: pH 5-11, p-nitrophenyl butyrate
Method: Esterase activity was determined by monitoring the formation of pNP at 410 nm from various pNP-esters using a Beckman UV spectrophotometer (model DU 640) (21). Substrates were dissolved in isopropanol and were added to 50 mM sodium phosphate buffer pH 8.0 to give 10% (v/v) total isopropanol concentration in a 1 mL reaction volume. pNP-butyrate was used at a final concentration of 1.2 mM. For pNP-caprylate, myristate and palmitate, the final concentration ranged from 0.1 to 0.5 mM. The reaction (1 mL) was started by adding an appropriate amount of enzyme. One enzyme unit (U) is defined as the amount of enzyme that produced 1 μmol of product (pNP) per min; specific activity is expressed as U/mg protein. A molar extinction coefficient of 15 mM^−1 cm^−1 for pNP is used for calculating enzyme activity.
Universal Buffer solutions were prepared according to Britton and Robinson (Surinenaite et al., 2002), having the selected pH value from 5-11. Activity of KrCUT and KrCUT189 were measured at the indicated pH, using p-nitrophenyl butyrate as substrate as described in Example 1, section 1.6). Curves were obtained by plotting values of activity against pH.

[2] = Method: Molar masses of the samples were determined with universal calibration with the refractive index detector and the viscosity detector. The universal calibration curve was based on polystyrene standards [Polymer Laboratories (Amherst, Mass.) and Aldrich (Oakville, ON)] using the molar masses determined by the manufacturer and the intrinsic viscosities measured by the apparatus. The software OmniSEC™ software from Viscotek was used for data collection and calibration. Separation in THF was performed by injecting 100 μL of 1.5-2 mg/mL solutions of standards or samples into thermostatically controlled SuperRes™ columns [35° C.; PAS-102, PAS102.5, PAS-103L, each 300 mm×8 mm; PolyAnalytik (London, ON)]. The flow rate was 1 mL/min.
Alternatively, a thin film was prepared from 1 g of commercial available PCL pellets and used for degradation. The polymer was dissolved in dichloromethane in a 1 L beaker. The solvent was allowed to evaporate overnight and the resulting film dried to constant weight under reduced pressure. Prior to enzymatic treatment the film was cut into pieces (20 mg) of approximately 1.5 cm×1.5 cm and thickness of approximately 0.1 mm. The reaction mixture was monitored by HPLC and SEC as described above.
To quantify this further, pellets of polycaprolactone (PCL) as well as films of PCL were incubated with KrCUT at various enzyme concentrations (1.25 μM, 2.5 μM, and 5 μM representing 4.7, 9.5 and 19 enzyme Units) at 37° C. The degradation of the polymer was followed over time by analyzing aliquots of the reaction mixture by HPLC for the detection of the released monomer (6-hydroxyhexanoic acid) and characterization of the remaining polymer by SEC after lypholization of the sample.

[3] = Adsorption assay on PHB granules (Langmuir isotherm); assay type: binding
Method: Purified KrCUT of concentrations ranging from 0.16 to 3.2 mg/mL were mixed with 25 mg PHB in 50 mM sodium phosphate (pH 8.0) in a total volume of 1 mL and mixed by gently shaking for 3 h. The PHB polymer was removed by centrifugation and the concentration of protein in the supernatant was determined by the BCA method. The concentration of bound protein at a particular concentration of cutinase was calculated as the difference between a control without added PHB and free cutinase after incubation with PHB.
Adsorption assays were carried out following procedures of Kasuya et al. (1999). Purified KrCUT and KrCUT189 at concentrations ranging from 0.16 to 3.2 mg/mL were added to a suspension of 25 mg PHB in 50 mM sodium phosphate (pH 8.0) in a total volume 1 mL. The mixture was incubated at room temperature with gentle shaking for at least 3 h. The PHB polymer was removed by centrifugation and the concentration of protein in the supernatant was determined by the BCA method. The concentration of bound protein at a particular concentration of cutinase was calculated as the difference between a control without added PHB and free cutinase after incubation with PHB. An isotherm of [Bound](mg/mg PHB) vs [Free] (mM) was generated and binding parameters were determined by non-linear regression using the Langmuir equation:
[formula] where [E]=Ead+[E]e, is the concentration of the protein added; Emax is the maximum amount of protein adsorbed on the polyester granules, and K is the adsorption equilibrium constant of the protein.

[4] = Pectin release from hemp fibre (TBA method)
Method: Hemp fibres (German variety, 150 mg) were treated with either pectate lyase (PL, 10 U) or PL combined with various amounts of KrCUT (40, 60 and 100 U). Control experiments containing no enzyme or 100 U of KrCUT were conducted for comparison. After incubation at 37° C., aliquots of the reaction mixture were taken at 1 h 30 min and 3 h, and analyzed for pectin degradation products using the thio-barbituric acid (TBA) method (52) which detects released unsaturated compounds spectrophotometrically at 550 nm.
The quantity of pectin released from natural hemp fibre by KrCUT in conjunction with the action of a thermostable pectate lyase was assessed as described in Example 1, section 1.13. The thermostable pectate lyase alone released a certain amount of pectin as expected of the pectinolytic activity (Xiao et al., 2008).

[5] = KrCUT activity in the presence of chelating agents; assay type: biochemical
[6] = Degradation of polylactic acid; details: 2.5 μM; 2 Units

B1: KrCUT: mature Kineococcus radiotolerans cutinase, amino acids 34-294 of SEQ ID NO: 1; SEQ ID NO: 6 (protein)
chain: ATCSDVDVVFARGTGETPGLGVVGGPFVRSLTGELSDRTVTSHAVDYAASSSQASAGPGATAMSAHVREVAAACPSTRFVLGGYSQGATVTDIALGIRTGTTTGTPVPAELAGRVAAVVVFGNPLGLSGRTIATASSTYGPKSKDYCNSSDSVCGSAPKTGTGGHLSYASNGSTTDGARFAAGLVRAAGTPTTPTPTPTPTPVPTTCVRDSTRDHVAADRAVSLYGRAYARGSRDSLGATSSYNVVSLQQVEGGWRLVTAC
modifications: Kineococcus radiotolerans; (1)..(261) KrCUT (lacking residues 1-33 of ssKrCUT)
[1]
  pH optimum: 8
[2]; 2.5-5 μM, 24 hours
  polymer peak in SEC: complete disappearance of the polymer
[2]; PCL pellets, 2.5 μM protein, 24 hours
  6-hydroxy hexanoic acid from PCL pellets, % of the maximum yield: 18%
[2]; enzyme 1.25 μM, 24 hours
  degradation of thin films of PCL: nearly completely degraded
[2]; enzyme 2.5 or 5 μM, 6 hours, 37° C.
  acidic monomers released from PCL: ~90%
[2]; time 0 h
  Mn of remaining PCL: 44000 Daltons
  Mw of remaining PCL: 63300 Daltons
  PCL (SEC): 100%
  acid (HPLC): 0%
[2]; time 1 h
  Mn of remaining PCL: 53800 Daltons
  Mw of remaining PCL: 64400 Daltons
  PCL (SEC): 61%
  acid (HPLC): 28%
[2]; time 3 h
  Mn of remaining PCL: 55000 Daltons
  Mw of remaining PCL: 66600 Daltons
  PCL (SEC): 27%
  acid (HPLC): 60%
[2]; time 6 h
  Mn of remaining PCL: 58200 Daltons
  Mw of remaining PCL: 68100 Daltons
  PCL (SEC): 12%
  acid (HPLC): 85%
[2]; time 24 h
  Mn of remaining PCL: 69500 Daltons
  Mw of remaining PCL: 74000 Daltons
  PCL (SEC): 0.3%
  acid (HPLC): 100%
[3]
  binding to PHB: binds efficiently
  degradation of PHB: did not degrade
[3]; 25° C., pH 8.0
  adsorption equilibrium constant (K): 0.12±0.03 ml/mg PHB
  maximum amount of cutinase absorbed on the PHB granules (Emax): 23.68 ± 0.03 µg/mg
[4]; highest concentration, absence of pectate lyase
  pectin released from hemp fibre: negligible amounts
[4]; increasing amount of cutinase, fixed pectate lyase
  pectin degradation products detected: higher percentage of pectin degradation products
[5]; EDTA 10% w/v
  effect of EDTA on KrCUT activity: does not inhibit
[5]; GLDA 5% w/v
  activity retained in the presence of GLDA: 100%
[6]
  PLA degraded: approximately 5%
